Data reported in patent US20230408517A1 (BIO TECHNE, published 2023).
Where two headings read alike, the source gives them in different places.

Columns and labels:
[1] = target: T1, recombinant SARS-CoV-2 spike S1 RBD (R319-F541), C-terminal 6-His (SARS-CoV-2, UniProt P0DTC2 319-541); assay: flow cytometry, blocking of binding to hACE-2 cells
[2] = target: T2, SA variant RBD (R319-F541 with K417N, E484K, N501Y), C-terminal 6-His (SARS-CoV-2, UniProt P0DTC2 319-541); assay: sandwich dipstick, detector Ab4-AuNP
[3] = target: T3, BR P.1 variant RBD (R319-F541 with K417T, E484K, N501Y), C-terminal 6-His (SARS-CoV-2, UniProt P0DTC2 319-541); assay: sandwich dipstick, detector Ab4-AuNP
[4] = target: T1, recombinant SARS-CoV-2 spike S1 RBD …; assay: sandwich dipstick, detector Ab4-AuNP
[5] = target: T4, UK variant RBD (R319-F541 with N501Y), C-terminal 6-His (SARS-CoV-2, UniProt P0DTC2 319-541); assay: sandwich dipstick, detector Ab4-AuNP
[6] = target: T2, SA variant RBD (R319-F541 with K417N, …); assay: lateral flow NC50, RBD-AuNP vs immobilised ACE2
[7] = target: T3, BR P.1 variant RBD (R319-F541 with …); assay: lateral flow NC50, RBD-AuNP vs immobilised ACE2
[8] = target: T1, recombinant SARS-CoV-2 spike S1 RBD …; assay: lateral flow NC50, RBD-AuNP vs immobilised ACE2
[9] = target: T4, UK variant RBD (R319-F541 with N501Y), …; assay: lateral flow NC50, RBD-AuNP vs immobilised ACE2
[10] = target: T1, recombinant SARS-CoV-2 spike S1 RBD …; assay: flow cytometry, blocking of binding to hACE-2 cells; remark: listed apart in the source
[11] = target: T5, IN v1 variant RBD (R319-F541 with L452R, E484Q) (SARS-CoV-2, UniProt P0DTC2 319-541); assay: lateral flow assay: blocking of RBD-AuNP capture by ACE2
[12] = target: T6, IN v2 variant RBD (R319-F541 with L452R, T478K) (SARS-CoV-2, UniProt P0DTC2 319-541); assay: as above
[13] = target: T7, L452R RBD (R319-F541 with L452R) (SARS-CoV-2, UniProt P0DTC2 319-541); assay: as above
[14] = target: T2, SA variant RBD (R319-F541 with K417N, …); assay: sandwich dipstick, detector Ab5-AuNP
[15] = target: T3, BR P.1 variant RBD (R319-F541 with …); assay: sandwich dipstick, detector Ab5-AuNP
[16] = target: T1, recombinant SARS-CoV-2 spike S1 RBD …; assay: sandwich dipstick, detector Ab5-AuNP
[17] = target: T4, UK variant RBD (R319-F541 with N501Y), …; assay: sandwich dipstick, detector Ab5-AuNP
[18] = target: K417E RBD (R319-F541 with K417E) (SARS-CoV-2, UniProt P0DTC2 319-541); assay: lateral flow NC50, RBD-AuNP vs immobilised ACE2
[19] = target: T2, SA variant RBD (R319-F541 with K417N, …); assay: lateral flow NC50, RBD-AuNP vs immobilised ACE2; remark: listed apart in the source
[20] = target: T3, BR P.1 variant RBD (R319-F541 with …); assay: lateral flow NC50, RBD-AuNP vs immobilised ACE2; remark: listed apart in the source
[21] = target: T1, recombinant SARS-CoV-2 spike S1 RBD …; assay: lateral flow NC50, RBD-AuNP vs immobilised ACE2; remark: listed apart in the source
[22] = target: BR P.2 variant RBD (R319-F541 with E484K) (SARS-CoV-2, UniProt P0DTC2 319-541); assay: lateral flow NC50, RBD-AuNP vs immobilised ACE2
[23] = target: T478K RBD (R319-F541 with T478K) (SARS-CoV-2, UniProt P0DTC2 319-541); assay: lateral flow NC50, RBD-AuNP vs immobilised ACE2
[24] = target: T4, UK variant RBD (R319-F541 with N501Y), …; assay: lateral flow NC50, RBD-AuNP vs immobilised ACE2; remark: listed apart in the source
[25] = target: rSARS2-B.1.1.7 S aa16-1211 4x aa mut., C-His (SARS-CoV-2, UniProt P0DTC2 16-1211); assay: flow cytometry, blocking of binding to hACE-2 cells
[26] = target: T3, BR P.1 variant RBD (R319-F541 with …); assay: as above
[27] = target: rSARS2 RBD aa319-541, N439K, C-His (SARS-CoV-2, UniProt P0DTC2 319-541); assay: as above
[28] = target: T6, IN v2 variant RBD (R319-F541 with …); assay: as above
[29] = target: rSARS2-B.1.617.2 S aa16-1211 10+4x aa mut., C-His (SARS-CoV-2, UniProt P0DTC2 16-1211); assay: as above
[30] = target: rSARS2-B.1.1.7 S aa16-1211 2x aa mut., C-His (SARS-CoV-2, UniProt P0DTC2 16-1211); assay: as above
[31] = target: T5, IN v1 variant RBD (R319-F541 with …); assay: lateral flow NC50, RBD-AuNP vs immobilised ACE2
[32] = target: T6, IN v2 variant RBD (R319-F541 with …); assay: lateral flow NC50, RBD-AuNP vs immobilised ACE2
[33] = target: T7, L452R RBD (R319-F541 with L452R); assay: lateral flow NC50, RBD-AuNP vs immobilised ACE2

| Binder | percent blocking [1] | detection sensitivity [2] | detection sensitivity [3] | detection sensitivity [4] | detection sensitivity [5] | IC50 [6] | IC50 [7] | IC50 [8] | IC50 [9] | percent blocking [10] | IC50 [18] | IC50 [19] | IC50 [20] | IC50 [21] | IC50 [22] | IC50 [23] | IC50 [24] | percent blocking [25] | percent blocking [26] | percent blocking [27] | further results |
| --- | --- | --- | --- | --- | --- | --- | --- | --- | --- | --- | --- | --- | --- | --- | --- | --- | --- | --- | --- | --- | --- |
| 1035753 (antibody, V domains shown) VH: EVQLQQSGAELVRPGALVKLSCKASGFNIKDYYMHWVKQRPEQGLEWIGWIDPENGNTIYDPKFLGKASITADTSSNTAYLQLSSLTSEDTAVYYCARWYYYAMDSWGQGTSVTVSS VL: DIQMTQTTSSLSASLGDRVTISCSASQGISNYLNWYQQKPDGTVKLLIYYTSSLHSGVPSRFSGSGSGTDYSLTISNLEPEDIATYYCQQYSKLPFTFGGGTNLEMK | 94.7% | 0.01 µg/mL | 0.01 µg/mL | 0.01 µg/mL | 0.01 µg/mL | 3.19 µg/mL | 2.21 µg/mL | 1.66 µg/mL | 1.51 µg/mL | 94.7% | 0.89 µg/mL | 3.19 µg/mL | 2.21 µg/mL | 1.66 µg/mL | 3.22 µg/mL | 2.29 µg/mL | 1.51 µg/mL | 81.2% | 90.4% | 96.2% | binding result [11]: no binding (tested: 10 µg/mL); binding result [12]: no binding (tested: 10 µg/mL); binding result [13]: no binding (tested: 10 µg/mL); detection sensitivity [14]: 0.001 µg/mL; detection sensitivity [15]: 0.001 µg/mL; detection sensitivity [16]: 0.001 µg/mL; detection sensitivity [17]: 0.001 µg/mL; percent blocking [28]: 0%; percent blocking [29]: 0%; percent blocking [30]: 93.6% |
| 1035419 (antibody, V domains shown) VH: QVQLKQSGAELVRPGASVKLSCKTSGYIFTSYWIHWIKQRSGQGLEWIARIYPGTGSTYNNEKFKGKATLTADKSSSTAYMQLSSLKSEDSAVYFCARGEDNLYFYAMDYWGQGTSVTVSS VL: NIVLTQSPASLAVSLGQRATISCRASESVDSYGASFMHWCQQKPGQPPKLLIYLASNLESGVPARFSGSGSRTDFTLTIDPVEADDAATYYCQQNYEDPWTFGGGTKLEIK | 90.2% | 0.01 µg/mL | 0.01 µg/mL | 0.01 µg/mL | 0.01 µg/mL | 24 µg/mL | 44.8 µg/mL | 3.27 µg/mL | 27.6 µg/mL | 90.2% | 1.51 µg/mL | 24 µg/mL | 44.8 µg/mL | 3.27 µg/mL | 6.48 µg/mL | 9.01 µg/mL | 27.6 µg/mL | 33.3% | 8.7% | 69.3% | IC50 [31]: 16.5 µg/mL; IC50 [32]: 33.2 µg/mL; IC50 [33]: 20.6 µg/mL; percent blocking [28]: 72.5%; percent blocking [29]: 78.5%; percent blocking [30]: 21.8% |
